Results on 19 variants are retold here after the RNAGym collection of RNA variant scans (doi:10.1073/pnas.2313332121).

This sample holds only a part of the variants without activity.

The labels stand for the following.
B1: TPR 5TU (parent)
chain: GGAUCUUCUCGAUCUAACAAAAAAGACAAAUCUGCCACAAAGCUUGAGAGCAUCUUCGGAUGCAGAGGCGGCAGCCUUCGGUGGCGCGAUAGCGCCAACGUUCUCAACUAUGACACGCAAAACGCGUGCUCCGUUGAAUGGAGUUUAUCAUG

The series covers variants of B1. Nature of the series: polymerase ribozyme fitness, log enrichment relative to wild type (log ratio); higher = more active; in vitro selection for triplet polymerase activity. The gist of the method:
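A heterodimeric triplet polymerase ribozyme had each of its subunits mutagenized by PCR into a library, which was transcribed. One round of in vitro selection, done in triplicate, annealed each library with a biotinylated primer, its partner subunit and triplets, then incubated it frozen at −7 °C before gel excision of extended constructs, streptavidin-bead capture and RT-PCR. Fitness is the logarithm of genotype enrichment relative to wild-type enrichment, based on Illumina sequencing of inputs and outputs and inverse-variance-weighted replicate averages. A base-2 logarithm is used, and genotypes were kept only with ≥10 input reads and ≥1 read per output.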
GGAUCUUUUCGAUCUAACAAAAAAGAUAAAUCUGCCACAAAGCUUGAGAGCAUCUUCGGAUGCAGAGGCGGCAGCCUUCGGUGGCGCGAUAGCGCCAACGUUCUCAACUAUGACGCGCAAAACGCGUGCUCCGUUGAAUGGAGUUUAUCAUG [C8U C27U A115G]: the “polymerase ribozyme fitness (log ratio)” value is -4.06.

In the case of GGAUCUUUUCGAUCUAACAAAAAAGACAAAUCUGACACAAAGCUUGAGAGCAUCUUCGGAUGCAGAGGCGGUAGCUUUCGGUGGCGCAAUAUCGCCAACGUUCUCAACUAUGACACGCAAUACGCGUGCUCCGUUGAAUGGAGUUUAUCAUG [C8U C35A C72U C76U G88A G92U A121U], the “polymerase ribozyme fitness (log ratio)” value is at most -4.2. With GGAUCUUUUCGAUCUAACAAAAAAGACAAAUCUGCCACAAAGCUUGAGAGCAUCUUCGGAUGCAGAGGCGGCAGCCUUCGGUGGCGCGAUAGCGCCAACGUUCUCGACUAUGACACGCAAAACGCGUGCUCCGUUGAAUGGAGUUUAUCAUG [C8U A106G], the “polymerase ribozyme fitness (log ratio)” value is -2.98. The same measure for GGAUCUUUUCGAUCUAACAAAAAAGACAAAUCUGCCACAAAGCUUGAGAGCCUCUUCGGAUGCAGAGCCGGCAGCCUUCGGUGGCGCGAUAGCGCCAACGUUCUCAACUAUGACACGCAAAACGCGUGCUCCGUUGAAUGGAGUUUAUCAUG [C8U A52C G68C]: at most -4.2; for GGAUCUUUUCGAUCUAACAAAAAAGACAAAUCUGCCACAACGCUUCAGAGCAUCUUCGGAUGCAGAGGCGACAGCCUUCGGUUGCGCGAUAGCGCCAACGUUCUCAACUAUGACAGGCAAAACGCGUGCUCCGUUGAAUGGAGUUUAUCAUG [C8U A41C G46C G71A G83U C116G]: at most -4.2.

GGAUCUUUUCGAUCUAACAAAAAAGACAAAUCUGCCCCAAAGCUUGAGAGCAUCUUCGGAUGCAGAGGCGGCAGCCUUCGGUGGCGCGAUAGAGCCAACGUUCUCAACUAUGACACGCAAAACGCGUGCUCCGUUGAAUGGAGUUUAUCAGG [C8U A37C C93A U151G]: the “polymerase ribozyme fitness (log ratio)” value is at most -4.2.

Turning to GGAUCUUUUCGAUCUAACAAAAAAGACAAAUCUGCCAGAAAGCUUGAGAGCAUCUUCGGAUGCAGAGGCGGCAGCCUUCGGUGGCGCGAUAUCGUCAAUGUUCACAACUAUGACACGCAAAACGCGUGCUCCGUUGAAUGGAGUGUAUCAUG [C8U C38G G92U C95U C99U U104A U145G], the “polymerase ribozyme fitness (log ratio)” value is at most -4.2. Regarding GGAUCUUUUCGAUCUAACAAAAAAGACAAAUCUGCCACAACGCGUGAGAGCAUCUUCGGAUGCAGAGGCGGCAGCCUUCGCUGGCGCGAUAUGGCCAACGUUCUCAACUAUGACACGCAAAACGCGUGCUCCGUUGAAUGGAGUUUAUCAUG [C8U A41C U44G G81C G92U C93G], the “polymerase ribozyme fitness (log ratio)” value was at most -4.2. The same measure for GGAUCUUUUCGAUCUAACAAAAAAGACAAAUCUGCCAUAAAGCUUGAGGGCAUCUUCGGAUGCAGAGGCGGCAGCCUUGGGUGGCGCGAUAGAGCCAACGUUGUCAACUAUGACACGCAAAACGCGUGCUCCGUUUAAUGGAGUUUAUCAUG [C8U C38U A49G C79G C93A C103G G136U]: at most -4.2; for GGAUCUUUUCGAUCUAACAAAAAAGAGAAAUCUGCCACAGAGCUUGAGAGCAUCUUCGGAUGCAGAGGCGGCAGCCUGCGGUGGGGCGAUAGCGCCACCGUUCUCAACUAUGACACGCAAAACGCGUGCUCCGUUGAAUGGAGUUUAUCGUG [C8U C27G A40G U78G C85G A98C A150G]: at most -4.2. With GGAUCUUUUCGAUCUAACAAAAAAGACAAAUCUGCCACAAAGCUUGAGAGCAUCUUCGGAUGCAGAGGCGGCAGCCUUCGGUGGCGCGAUAGCGCCAUCGUUCUCAACUAUGACACGCAAAACGCGUGCUCCGUGGAAUGGAGUUUACCAUG [C8U A98U U135G U148C], the “polymerase ribozyme fitness (log ratio)” value was at most -4.2. Regarding GGAUCUUUUCGAUCUAACAAAAAAGACAAAUCUGCCACAAAGCUUGAGAGCAUCUUCGGAUGCAGCGGCGGCAGCCUUCGGUGGCGCGAUAGUGCCAACGUUCUCAACUAUGACACGCAAAACACGUGCUCCGUUGAAUGGAGUUUAUCAUG [C8U A66C C93U G124A], the “polymerase ribozyme fitness (log ratio)” value was at most -4.2. The same measure for GGAUCUUUUCGAUCUAACAAAAAAGAAAUAUCUGCCACAAAGCUUGAGAGCAUCUUCGGAUGCAGUAGCGGCAGCCUUCGGUGGCGCGAUAGCGCCAACGUUCUCAACUAUGACACGCAUAACGCGUGCUCCGAUGAAUGGAGUUUAUCAUG [C8U C27A A29U A66U G67A A120U U134A]: at most -4.2; for GGAUCUUUUCGAUCUAACAAAAAAGACAAAUCUGCCACACGGCUUGAGAACAUCUACGGAUGCAGAGGCGGCAGCCUUCGGUGGCGCGAUAGAGCCAACGUUCUCAACUAUGACACGCAAAACGCGUGCUCCGUUGAAUGGAGUUUAUCAUG [C8U A40C A41G G50A U56A C93A]: at most -4.2. To GGAUCUUUUGGAUCUAACAAAAAAGACAUAUCUGCCACAAAGCUUGAGAGCAUCUUCGGAUGCAGAGGCGGCAGCCUUCGGUGGUGCGAUAGCGCCAACGUUCUCAACUAUGACAUGCAAAACGCGUGCUCCGUUGAAUGGAGUUUAUCAUG [C8U C10G A29U C85U C116U] belongs at most -4.2; to GGAUCUUUUCGAUCUAACAAAAAAGACAAAUCUGCCACAAAGCUUGAGAGCAUCUUCGGAUGCAGAGGCGGCUGCCUUCGGUGGCGCGAUAGCGCCAACGUUCUCAACUAUGACACGCAAAACGCGUGCUCCGUUGAAUGGAGUUUAUCAUG [C8U A73U], -3.97. On to GGAUCUUUUCGAUCUAACAAAAAAGACAAAUCUGCCACAAAGCUUGGGAGCAUCUUCGGAUGCAGAGGCGGCAGCCUUCGGUGGCGCGAUAGCGCCAACGUUCUCAACUAUGACACGCAAAACGCGUGCUCCGUUGAAUGGAGUUUAUCAUG [C8U A47G], for which the “polymerase ribozyme fitness (log ratio)” value was -3.73. With GGAUCUUUUCGAUCUAAGAAAAAAGACAAAUCUGACACAAAGCUUGAGAGCAACUUCCGAUGCAGAGGCGGCAGCCUUCGGUGGCGCGAUAGCGCCAACGUUCUCAACUAUGACACGCAAAACGCGUGCUCCGUUGAAUGGAGUUUAUCAUG [C8U C18G C35A U53A G58C], the “polymerase ribozyme fitness (log ratio)” value was at most -4.2. The same measure for GGAUCUUUUCGAUCUAACAAAAAAGACAAAUCUGCCACAAAGCUUGAGAGCGUCUUCGGAUGCAGAGGCGGCAGCCUUCGGUGGAGCGAUAGCGCCAACGUUCUCAACUAUGACACGCUAAACGCGUGCGCCGUUGAAUGGAGUUUAUCAUG [C8U A52G C85A A119U U130G]: at most -4.2.
